The source of these data is article PMC10009755 (Journal of Medicinal Chemistry, 2023).

The target of the experiment is T1, wild-type ubiquitin (UniProt P0CG48 1-76).
T1 construct: ubiquitin, the cut product of the ubiquitin precursors; called 'wild-type ubiquitin'
The experiment can be described thus: SPR; USP21 immobilised by amine coupling on a CM5 chip; Biacore S200, A-B-A injection; 1 uM compound 18 as analyte A, then ubiquitin titrated in 1:2 dilutions from 25 uM; 15 °C. The note with it: both partners purified.

B1: human USP21 (Q9UK80, 209-563) (domain or fragment, UniProt Q9UK80 209-563, looked up)
chain: SGHVGLRNLGNTCFLNAVLQCLSSTRPLRDFCLRRDFRQEVPGGGRAQELTEAFADVIGALWHPDSCEAVNPTRFRAVFQKYVPSFSGYSQQDAQEFLKLLMERLHLEINRRGRRAPPILANGPVPSPPRRGGALLEEPELSDDDRANLMWKRYLEREDSKIVDLFVGQLKSCLKCQACGYRSTTFEVFCDLSLPIPKKGFAGGKVSLRDCFNLFTKEEELESENAPVCDRCRQKTRSTKKLTVQRFPRILVLHLNRFSASRGSIKKSSVGVDFPLQRLSLGDFASDKAGSPVYQLYALCNHSGSVHYGHYTALCRCQTGWHVYNDSRVSPVSENQVASSEGYVLFYQLMQEPPR
notes: cDNA optimized for expression in E. coli; The His tag is thrombin-cleavable; also called recombinant USP21; source: E. coli BL21(DE3), purified (Ni-NTA, MonoS cation exchange, SEC)
Take B1: the binding result is “binds”.
